According to patent US20070123452A1, “Method of selecting novel immunosuppressant” (Astellas Pharma Inc., priority 2002, published 2007):

How the values were obtained:
Jurkat cells = experiment: Cell proliferation, Cell Counting Kit-8; type: cell-based, human; conditions: 10 μg expression plasmid; Jurkat cells versus HEL cells and 293 cells
Method: 10 μg of a plasmid for the expression of wild-type HDAC4 and the HDAC4 dominant negative variant (H863L) prepared in Example 6 was transfected to Jurkat cells, HEL cells and 293 cells.
1×10^7 Jurkat cells (ATCC, TIB-152) were transformed by the electroporation method (BIO-RAD, Gene Pulser II, voltage 300 V, charge 975 μF, 400 μL). After transformation, 2.5 mL of RPMI 1640 containing 10% FBS (MOREGATE) (10% FBS RPMI 1640) was added, and this mixture was dispensed to a 96-well white plate in a ratio of 50 μL/well. After cultivation under conditions of 37° C., 5% CO2 and saturated humidity for 5 hours, a liquid mixture of Phorbol 12-Myristate 13-Acetate (PMA, SIGMA), Ionomycin (SIGMA) and Anti-CD28 antibody (Pharmingen) in 10% FBS RPMI 1640 was added at 50 μL/well (the final concentrations were 50 ng/mL, 1 μg/mL and 75 ng/mL, respectively) to stimulate the Jurkat cells. After cultivation under conditions of 37° C., 5% CO2 and saturated humidity for 4 hours, the number of cell was confirmed using the Cell Counting Kit-8 (DOJIN) 8.75×10^6 HEL cells (accession number JCRBOO62, JCRB) were transformed by the electroporation method (BIO-RAD, Gene Pulser II, voltage 1750 V, charge 10 μF, 365 μL). After transformation, 2 mL of 10% FBS RPMI 1640 was added, and this mixture was dispensed to a 96-well white plate in a ratio of 50 μL/well. […]

N-CoR(RD3) = target: T1, N-CoR(RD3) (Homo sapiens, UniProt O75376); experiment: Two-hybrid detection system for interaction of HDAC4 and N-CoR; type: cell-based; conditions: Jurkat cells; 22 hours after transfection
T1 construct: expressed in transfected cells; host or cells: Jurkat cells (ATCC, TIB-152)
T1 sequence (O75376 1005-1498): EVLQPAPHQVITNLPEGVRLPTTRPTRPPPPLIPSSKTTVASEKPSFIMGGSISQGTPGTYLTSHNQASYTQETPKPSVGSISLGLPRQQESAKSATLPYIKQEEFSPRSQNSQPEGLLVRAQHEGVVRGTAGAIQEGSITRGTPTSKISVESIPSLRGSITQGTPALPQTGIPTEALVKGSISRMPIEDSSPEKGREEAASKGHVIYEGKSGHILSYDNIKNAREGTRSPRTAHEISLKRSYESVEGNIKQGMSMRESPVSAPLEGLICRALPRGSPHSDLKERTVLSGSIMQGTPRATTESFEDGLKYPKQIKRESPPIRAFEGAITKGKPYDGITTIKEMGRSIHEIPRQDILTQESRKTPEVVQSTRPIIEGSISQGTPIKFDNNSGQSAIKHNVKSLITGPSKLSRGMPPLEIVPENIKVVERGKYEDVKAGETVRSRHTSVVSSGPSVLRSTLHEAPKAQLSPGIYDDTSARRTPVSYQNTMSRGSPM
Method: First, from the literature information in Mol. Cell, 2002, Vol. 9, p.45-57, the site corresponding to the RD3 sequence of human N-COR was determined (1005-1498a.a.). The human N-COR CDS base sequence was obtained from GenBank accession number AF044209, and human N-CoR(RD3) cDNA was amplified from human-lung-derived cDNA by the PCR method. The primers used were RD3-Bam-FW (SEQ ID NO:82) and RD3-Not-RV (SEQ ID NO:83) below. For the base sequence of human N-CoR(RD3), see SEQ ID NO:21; for the amino acid sequence encoded by the base sequence of human N-CoR (RD3), see SEQ ID NO:22. […]
Subsequently, 10 μg of pG5-Luc (Promega), 3 μg of BND and 3 μg of pACT, or 10 μg of pG5-Luc, 3 μg of pBND-N-CoR (RD3) and 3 μg of pACT-HDAC4, or 10 μg of pG5-Luc, 3 μg of pBND-N-CoR(RD3) and 3 μg of pACT-HDAC4 (H863L), were mixed respectively, and each mixture was transfected to 1×10^7 Jurkat cells (ATCC, TIB-152) by the electroporation method (BIO-RAD, Gene Pulser II, voltage 300 V, charge 975 μF, 400 μL). Twenty-two hours after transfection, luciferase activity in the cells was measured according to the manual of the Bright-Glo Luciferase Assay System (Promega) using a multi-label counter (1420 MULTILABEL COUNTER ARVO SX, WALLAC).

- interaction with N-CoR(RD3), GAL4 transcription activation (luciferase) (N-CoR(RD3)): did not interact with N-CoR(RD3)
B1: HDAC4 dominant negative variant (H863L): HDAC4 variant with H863L mutation, amino acid sequence SEQ ID NO:6, expressed from plasmid (protein, listed as Homo sapiens)
chain: MSSQSHPDGLSGRDQPVELLNPARVNHMPSTVDVATALPLQVAPSAVPMDLRLDHQFSLPVAEPALREQQLQQELLALKQKQQIQRQILIAEFQRQHEQLSRQHEAQLHEHIKQQQEMLAMKHQQELLEHQRKLERHRQEQELEKQHREQKLQQLKNKEKGKESAVASTEVKMKLQEFVLNKKKALAHRNLNHCISSDPRYWYGKTQHSSLDQSSPPQSGVSTSYNHPVLGMYDAKDDFPLRKTASEPNLKLRSRLKQKVAERRSSPLLRRKDGPVVTALKKRPLDVTDSACSSAPGSGPSSPNNSSGSVSAENGIAPAVPSIPAETSLAHRLVAREGSAAPLPLYTSPSLPNITLGLPATGPSAGTAGQQDTERLTLPALQQRLSLFPGTHLTPYLSTSPLERDGGAAHSPLLQHMVLLEQPPAQAPLVTGLGALPLHAQSLVGADRVSPSIHKLRQHRPLGRTQSAPLPQNAQALQHLVIQQQHQQFLEKHKQQFQQQQLQMNKIIPKPSEPARQPESHPEETEEELREHQALLDEPYLDRLPGQKEAHAQAGVQVKQEPIESDEEEAEPPREVEPGQRQPSEQELLFRQQALLLEQQRIHQLRNYQASMEAAGIPVSFGGHRPLSRAQSSPASATFPVSVQEPPTKPRFTTGLVYDTLMLKHQCTCGSSSSHPEHAGRIQSIWSRLQETGLRGKCECIRGRKATLEELQTVHSEAHTLLYGTNPLNRQKLDSKKLLGSLASVFVRLPCGGVGVDSDTIWNEVHSAGAARLAVGCVVELVFKVATGELKNGFAVVRPPGHHAEESTPMGFCYFNSVAVAAKLLQQRLSVSKILIVDWDVHHGNGTQQAFYSDPSVLYMSLLRYDDGNFFPGSGAPDEVGTGPGVGFNVNMAFTGGLDPPMGDAEYLAAFRTVVMPIASEFAPDVVLVSSGFDAVEGHPTPLGGYNLSARCFGYLTKQLMGLAGGRIVLALEGGHDLTAICDASEACVSALLGNELDPLPEKVLQQRPNANAVRSMEKVMEIHSKYWRCLQRTTSTAGRSLIEAQTCENEEAETVTAMASLSVGVKPAEKRPDEEPMEEEPPL
modifications: Dominant negative mutant (H863L) of human histone deacetylase-4 (HDAC4) gene
- cell proliferation (number of cells) (Jurkat cells): cell proliferation inhibition specific for Jurkat cells
